{"source": "paper PMC8445900", "assay_in_all_cases": "ITC", "key": {"[1]": {"target": "SARS-CoV-2 spike protein receptor-binding domain T478I (SARS-CoV-2) (UniProt P0DTC2)"}, "[2]": {"target": "SARS-CoV-2 spike protein receptor-binding domain K417N (SARS-CoV-2) (UniProt P0DTC2)"}, "[3]": {"target": "SARS-CoV-2 spike protein receptor-binding domain S477N (SARS-CoV-2) (UniProt P0DTC2)"}, "[4]": {"target": "SARS-CoV-2 spike protein receptor-binding domain S494P (SARS-CoV-2) (UniProt P0DTC2)"}, "[5]": {"target": "SARS-CoV-2 spike protein receptor-binding domain Y453F (SARS-CoV-2) (UniProt P0DTC2)"}}, "data": [{"substance": "CC12.1 single-chain fragment variable (scFv)", "values": [{"measurement": "Kd", "setting": "[1]", "result": 5.8, "unit": "nM"}, {"measurement": "dH", "setting": "[1]", "result": -5.6, "unit": "kcal/mol"}, {"measurement": "Kd", "setting": "[2]", "result": 119, "unit": "nM"}, {"measurement": "dH", "setting": "[2]", "result": -1.8, "unit": "kcal/mol"}, {"measurement": "Kd", "setting": "[3]", "result": 25.6, "unit": "nM"}, {"measurement": "dH", "setting": "[3]", "result": -5.7, "unit": "kcal/mol"}, {"measurement": "Kd", "setting": "[4]", "result": 23, "unit": "nM"}, {"measurement": "dH", "setting": "[4]", "result": -6.4, "unit": "kcal/mol"}, {"measurement": "Kd", "setting": "[5]", "result": 827, "unit": "nM"}, {"measurement": "dH", "setting": "[5]", "result": -2.2, "unit": "kcal/mol"}]}]}
